Data published in patent US20190194291A1 (Hoffmann-La Roche, published 2019).

T1: cyCD19 ECD (cynomolgus, UniProt A0A2K5W8L9 20-292)
T1 construct: extracellular domain; also called cynomolgus CD19 extracellular domain; cynomolgus CD19
T1 sequence: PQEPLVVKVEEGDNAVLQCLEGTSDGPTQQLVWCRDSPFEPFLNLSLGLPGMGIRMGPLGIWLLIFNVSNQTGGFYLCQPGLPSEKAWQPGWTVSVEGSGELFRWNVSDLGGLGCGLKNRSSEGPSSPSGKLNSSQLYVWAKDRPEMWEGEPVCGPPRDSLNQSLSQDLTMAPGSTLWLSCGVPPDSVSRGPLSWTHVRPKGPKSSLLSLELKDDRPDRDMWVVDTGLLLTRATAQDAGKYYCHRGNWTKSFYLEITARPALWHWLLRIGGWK

T2: human CD19 (antigen of Table 9, construct not stated) (human, UniProt P15391 20-291, limits assumed)
T2 sequence: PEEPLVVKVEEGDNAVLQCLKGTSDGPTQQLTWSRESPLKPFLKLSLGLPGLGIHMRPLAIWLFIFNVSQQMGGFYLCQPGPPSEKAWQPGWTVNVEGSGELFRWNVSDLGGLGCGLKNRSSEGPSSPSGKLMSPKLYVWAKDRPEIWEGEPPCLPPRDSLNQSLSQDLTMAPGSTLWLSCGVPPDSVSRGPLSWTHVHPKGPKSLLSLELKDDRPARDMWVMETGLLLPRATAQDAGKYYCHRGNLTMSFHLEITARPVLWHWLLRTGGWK

T3: huCD19 ECD (human, UniProt P15391 20-291)
T3 construct: also called human CD19 extracellular domain
T3 sequence: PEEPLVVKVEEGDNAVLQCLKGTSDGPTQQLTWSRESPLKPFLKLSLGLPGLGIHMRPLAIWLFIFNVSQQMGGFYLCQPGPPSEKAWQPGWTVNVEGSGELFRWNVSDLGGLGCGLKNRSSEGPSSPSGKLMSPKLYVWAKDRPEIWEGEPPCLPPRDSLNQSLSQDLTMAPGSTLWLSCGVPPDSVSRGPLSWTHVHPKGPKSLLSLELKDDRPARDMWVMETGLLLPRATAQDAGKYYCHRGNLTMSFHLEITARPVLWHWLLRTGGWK

T4: human CEA expressed on MKN45 cells (human, UniProt P06731 35-685)
T4 construct: also called CEA-expressing human gastric adenocarcinoma cells (MKN45)
T4 sequence: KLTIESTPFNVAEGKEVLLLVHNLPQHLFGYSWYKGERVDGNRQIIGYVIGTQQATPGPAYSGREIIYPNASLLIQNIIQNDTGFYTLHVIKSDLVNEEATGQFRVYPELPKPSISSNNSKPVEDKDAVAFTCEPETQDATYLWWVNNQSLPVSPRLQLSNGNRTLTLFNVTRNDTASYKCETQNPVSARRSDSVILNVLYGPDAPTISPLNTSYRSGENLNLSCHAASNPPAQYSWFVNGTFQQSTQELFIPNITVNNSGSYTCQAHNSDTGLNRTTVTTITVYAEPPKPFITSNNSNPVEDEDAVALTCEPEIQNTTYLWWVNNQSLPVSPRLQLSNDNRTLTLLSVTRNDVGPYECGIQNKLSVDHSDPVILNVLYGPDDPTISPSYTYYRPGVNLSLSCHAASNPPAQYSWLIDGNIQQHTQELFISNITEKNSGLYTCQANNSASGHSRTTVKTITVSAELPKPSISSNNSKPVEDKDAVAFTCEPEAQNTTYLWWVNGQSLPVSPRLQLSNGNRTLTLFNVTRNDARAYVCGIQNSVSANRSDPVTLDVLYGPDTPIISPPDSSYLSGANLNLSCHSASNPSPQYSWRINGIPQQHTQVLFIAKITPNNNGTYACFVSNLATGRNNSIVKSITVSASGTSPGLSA


Assays:
cyCD19 ECD = target: T1, cyCD19 ECD; assay: binding to CD19 ECD, method not stated
[1] = target: T2, human CD19 (antigen of Table 9, …); assay: BIAcore (SPR), format not stated
[2] = target: T2, human CD19 (antigen of Table 9, …); assay: listed under the BIAcore KD; taken as half-life of the complex
huCD19 ECD = target: T3, huCD19 ECD; assay: binding to CD19 ECD, method not stated
[3] = target: T5, monomeric human CD19 antigen Fc(kih) fusion molecule (human, UniProt P0DOX5 223-449 = IgG part); assay: SPR (ProteOn XPR36): Fab from bacterial supernatant captured on anti-human Fab antibody, monomeric CD19-Fc 150-6 nM as analyte, 1:1 Langmuir fit
T5 construct: Heterodimeric Fc fusion with a single copy of the CD19 ectodomain; also called human CD19 Fc(kih); Recombinant human CD19
Method: In order to further characterize the ELISA-positive clones, the off-rate was measured by surface plasmon resonance and compared with the parental humanized clone 8B8.
For this experiment, 7000 RU of polyclonal anti-human Fab antibody were immobilized on all 6 channels of a GLM chip by Amine coupling (NaAcetate pH4.5, 25 μl/min, 240 s) (vertical orientation). Each antibody-containing bacterial supernatant was filtered and 2-fold diluted with PBS, and then injected for 360 s at 25 μl/minute to achieve immobilization levels of between 100 and 400 response units (RU) in vertical orientation. […] Regeneration was performed by two pulses of 10 mM glycine pH 1.5 and 50 mM NaOH for 30 s at 90 ul/min (horizontal orientation). Dissociation rate constants (koff) were calculated using a simple one-to-one Langmuir binding model in ProteOn Manager v3.1 software by simultaneously fitting the sensorgrams. […] The variable domains of the corresponding phagemids were sequenced.

[4] = target: T4, human CEA expressed on MKN45 cells; assay: flow cytometry on CEA-expressing MKN45 cells, PE anti-human IgG Fc detection
Method: The binding of different humanized variants of T84.66 IgG was tested on CEA-expressing human gastric adenocarcinoma cells (MKN45, DSMZ ACC 409).
Cells were harvested, counted, checked for viability and re-suspended at 2×10⁶ cells/ml in FACS buffer (100 μl PBS 0.1% BSA). […] Binding curves and EC50 values were obtained and calculated using GraphPadPrism5.

Binder | EC50 (cyCD19 ECD) | koff [3] | also measured
wild-type humanized anti-human CD19 antibody 8B8 (antibody, V domains shown) VH: QVQLVQSGAEVKKPGASVKVSCKASGYTFTDYIMHWVRQAPGQGLEWMGYINPYNDGSKYTEKFNGRVTMTSDTSISTAYMELSRLRSDDTAVYYCARGTYYYGSALFDYWGQGTTVTVSS VL: DIVMTQTPLSLSVTPGQPASISCKSSQSLENSNGNTYLNWYLQKPGQSPQLLIYRVSKRFSGVPDRFSGSGSGTDFTLKISRVEAEDVGVYYCLQLTHVPYTFGQGTKLEIK | 0.313 µg/mL | – | –
humanized anti-human CD19 antibody clone 8B8-018 (antibody, V domains shown) VH: QVQLVQSGAEVKKPGASVKVSCKASGYTFTDYIMHWVRQAPGQGLEWMGYINPYNDGSKYTEKFQGRVTMTSDTSISTAYMELSRLRSDDTAVYYCARGTYYYGSALFDYWGQGTTVTVSS VL: DIVMTQTPLSLSVTPGQPASISCKSSQSLENPNGNTYLNWYLQKPGQSPQLLIYRVSKRFSGVPDRFSGSGSGTDFTLKISRVEAEDVGVYYCLQLTHVPYTFGQGTKLEIK | 0.255 µg/mL | – | Kd [1]: 6 nM; t1/2 [2]: 43.6 min; EC50 (huCD19 ECD): 0.084 µg/mL
parental humanized clone 8B8 (Fab in bacterial supernatant) (Fab, V domains shown, Soluble Fab with Flag tag from a phagemid, tested as bacterial supernatant; also called Parental 8B8; humanized parental clone 8B8) VH: QVQLVQSGAEVKKPGASVKVSCKASGYTFTDYIMHWVRQAPGQGLEWMGYINPYNDGSKYTEKFQGRVTMTSDTSISTAYMELSRLRSDDTAVYYCARGTYYYGSALFDYWGQGTTVTVSS VL: DIVMTQTPLSLSVTPGQPASISCKSSQSLENSNGNTYLNWYLQKPGQSPQLLIYRVSKRFSGVPDRFSGSGSGTDFTLKISRVEAEDVGVYYCLQLTHVPYTFGQGTKLEIK | – | 0.000301 s⁻¹ | –
affinity-matured 8B8-derived clone 2B11 (Fab in bacterial supernatant) (Fab, V domains shown, Soluble Fab with Flag tag, tested as bacterial supernatant; also called 8B8-2B11) VH: QVQLVQSGAEVKKPGASVKVSCKASGYTFTDYIMHWVRQAPGQGLEWMGYINPYNDGSKYTEKFQGRVTMTSDTSISTAYMELSRLRSDDTAVYYCARGTYYYGPQLFDYWGQGTTVTVSS VL: DIVMTQTPLSLSVTPGQPASISCKSSQSLETSTGTTYLNWYLQKPGQSPQLLIYRVSKRFSGVPDRFSGSGSGTDFTLKISRVEAEDVGVYYCLQLLEDPYTFGQGTKLEIK | – | 4.37e-06 s⁻¹ | –
Humanized variant 1 of T84.66 IgG (T84.66-LCHA) (antibody, V domains shown, Tested as IgG) VH: QVQLVQSGAEVKKPGSSVKVSCKASGFNIKDTYMHWVRQAPGQGLEWMGRIDPANGNSKYVPKFQGRVTITADTSTSTAYMELSSLRSEDTAVYYCAPFGYYVSDYAMAYWGQGTLVTVSS VL: EIVLTQSPATLSLSPGERATLSCRAGESVDIFGVGFLHWYQQKPGQAPRLLIYRASNRATGIPARFSGSGSGTDFTLTISSLEPEDFAVYYCQQTNEDPYTFGQGTKLEIK | – | – | EC50 [4]: 1.5 µg/mL
